From article PMC6361964, “A transcription factor PU.1 is critical for Ccl22 gene expression in dendritic cells and macrophages” come the findings set out here.

B1: Site 1 probe, mouse Ccl22 promoter (dsDNA)
DNA 1: GGCTGGGGGAAGTGGGAC
DNA 2: GTCCCACTTCCCCCAGCC
B2: Site 1&2 probe, mouse Ccl22 promoter (dsDNA)
DNA 1: CGCTGGGGGAAGTGGGACTTCTTCTTTCAG
DNA 2: CTGAAAGAAGAAGTCCCACTTCCCCCAGCG
B3: Site 2 probe, mouse Ccl22 promoter (dsDNA)
DNA 1: GTGGGACTTCTTCTTTCAG
DNA 2: CTGAAAGAAGAAGTCCCAC

The target of this data set is PU.1 (UniProt P17433 1-272). The data set is described as follows: EMSA; anti-PU.1 Ab control; EMSA in 5% acrylamide gels with fluorescence detection; buffer, salt, pH and temperature not in the material. The note with it: protein: ivt; label: FLO (fluorescent). A general note: Mobility shift assays separate free from complexed probe on a gel.
As for B1, the binding result was “binds”.
For the molecule B2, the binding result is reported as “binds”.
Under B3 stands “binds”.
